Reference: patent US20260139067A1 (BETH ISRAEL DEACONESS MEDICAL CENTER, published 2026)

How the values were obtained:
[1] = biological target: T1, CDCP1 expressed on the surface of human cells (PC3, H1299, H2009 and others) (human, UniProt Q9H5V8 30-836); assay: immunoprecipitation: antibody 76 (20 ng/ml) added to intact PC3 cells (80 min, 4 °C), Western blot
T1 construct: Endogenous CDCP1 of human cell lines; also called CDCP1 antigen expressed on PC3 cells; CDCP1 expressing cells

[2] = biological target: T1, CDCP1 expressed on the surface of human …; assay: immunoprecipitation: antibody 24 (5 µg/ml) added to intact PC3 cells (80 min, 4 °C), Western blot
[3] = biological target: T1, CDCP1 expressed on the surface of human …; assay: flow cytometry on PC3 cells (prostate cancer), anti-human IgG Fc R-PE detection
Experimental: (§1) Binding was evaluated on three human cancer cell lines, PC3 (prostate cancer), H1299 (Non-small cell lung cancer), and H2009 (lung adenocarcinoma). To accomplish this, adherent cells were first dissociated with Cell Dissociation Buffer (Life Technologies #13150-016), pelleted by centrifugation, and resuspended by FACS buffer (PBS-CMF, 3% FBS, 0.1% weight/volume (w/v) sodium azide). […] Following a thirty-minute incubation on ice in dark, the cells were washed twice, combined with eFluor 660 Fixable Viability Dye (eBioscience #65-0864-18), and fixed (BD Cytofix, BD Biosciences #554655). Stained cells were acquired on a LSR Fortessa instrument using BD FACSDiva Software. Background subtracted gMFI of viable cells was determined using FlowJo software and plotted using Graphpad Prism software to generate EC₅₀ s (FIGS. 26A and 26B).

[4] = biological target: T2, recombinant human CDCP1 extracellular domain (CDCP1-ECD) (human, UniProt Q9H5V8 30-663); assay: SPR (Biacore T200), antibody captured on anti-human IgG, CDCP1-ECD injected
T2 construct: Expressed in HEK293 and chemically biotinylated for the phage selection; also called human CDCP1 ECD; human CDCP1-ECD
Experimental: (§2) Specifically, the binding kinetics of anti-CDCP1 antibodies against recombinant human, cynomologus monkey and mouse CDCP1-ECD were determined using surface plasmon resonance (SPR) and a Biacore T200 instrument (GE Healthcare). An anti-human IgG antibody was amine coupled onto a CM5 carboxymethylated dextran sensor chip surface (GE Healthcare), using the manufacturer's recommendations, to densities of approximately 10,000-13,000 response units (RU). Each anti-CDCP1 antibody was diluted to 0.5 μg/mL in 10 mM HEPES pH 7.4, 0.15 M NaCl, 3 mM EDTA, 0.05% P-20 (HBS-EP+) and captured for about 20-23 seconds at a flow rate of 10 μL/min. […] The sensorchip surface was regenerated with three 30 second pulses of 3M MgCl₂ at a flow rate of 50 μL/minute. All injections used HBS-EP+ as both the running and sample buffer and were performed at 25° C. with a data collection rate of 1 Hz. Sensorgrams were double referenced by using both a control surface and buffer injections. Rate constants were determined by fitting the data to a 1:1 model with Biacore T200 evaluation software v3.0 and the equation KD=kd/kₐ.

[5] = biological target: T3, recombinant cynomolgus monkey CDCP1 extracellular domain (cynomolgus monkey, UniProt A0A2K5VLA8 30-663); assay: as above
T3 construct: range 30-663; also called cyno CDCP1 ECD; cynomolgus monkey CDCP1-ECD
Experimental: as §2

[6] = biological target: T1, CDCP1 expressed on the surface of human …; assay: flow cytometry on H2009 cells (lung adenocarcinoma), anti-human IgG Fc R-PE detection
Experimental: as §1

[7] = biological target: T1, CDCP1 expressed on the surface of human …; assay: flow cytometry on H1299 cells (NSCLC), anti-human IgG Fc R-PE detection
Experimental: as §1

[8] = biological target: T2, recombinant human CDCP1 extracellular …; assay: SPR (Biacore T200), antibody captured on anti-human IgG, CDCP1-ECD injected; experiment 2
Experimental: as §2

[9] = biological target: T3, recombinant cynomolgus monkey CDCP1 …; assay: as above
Experimental: as §2

[10] = biological target: T1, CDCP1 expressed on the surface of human …; assay: competition FACS on PC3 cells; competitor: biotinylated CP13E10 reporter at 1.5 µg/mL, streptavidin-PE detection
Experimental: For this competition FACS assay procedure, PC3 cells were detached from flasks using cell dissociation buffer (Gibco, catalog number 13151-014), washed once with ice-cold FACS buffer (PBS-CMF pH 7.2+3% FBS+0.1% sodium azide) and 2.5×10⁵ cells in 50 μl buffer were added to each well in 96-well V-bottom plates (Corning catalog number 3894). […] Next, the cells were washed twice with FACS buffer. Streptavidin-PE (Invitrogen/eBioscience catalog number 12-4317-87) diluted 1:200 was added and incubated for 30 minutes at room temperature. The cells were washed twice with FACS buffer and were fixed on ice for 15 minutes by adding 100 μl of BD Cytofix (BD Biosciences catalog number 554655) to each well. The cells were washed twice with FACS buffer.

[11] = biological target: T1, CDCP1 expressed on the surface of human …; assay: competition FACS on PC3 cells; competitor (reporter) biotinylated CP13E10
[12] = biological target: T2, recombinant human CDCP1 extracellular …; assay: competition ELISA of Example 7 on CDCP1-ECD (biotinylated CP13E10-54HC-89LC reporter as described there; the reporter is not named on the sheet)
Experimental: The CDCP1-ECD protein was diluted to 1 μg/ml in PBS-CMF pH 7.2, 100 μl was added to each well of the plate, and the plate was incubated overnight at 4° C. The contents of the plate were discarded and then the plate was blocked with PBS-CMF pH7.2+0.02% casein for 3 hours at room temperature. […] The wells were washed four times with PBS-CMF pH7.2+0.03% tween-20. Streptavidin-HRP (catalog #7100-05, Southern Biotech, (Birmingham, Alabama) diluted 1:10,000 was added and incubated for 30 minutes at room temperature. The wells were washed four times with PBS-CMF pH 7.2+0.03% tween-20 and then TMB (BioFx) was added. The reaction developed for 5 to 10 minutes and was then quenched with 0.18 N H₂SO₄. The absorbance at 450 nm was determined and the results are shown in FIG. 7.

[13] = biological target: T2, recombinant human CDCP1 extracellular …; assay: SPR, Biacore T200
Experimental: as §2

[14] = biological target: T3, recombinant cynomolgus monkey CDCP1 …; assay: SPR, Biacore T200
Experimental: as §2

T3 sequence (A0A2K5VLA8 entry or part of it): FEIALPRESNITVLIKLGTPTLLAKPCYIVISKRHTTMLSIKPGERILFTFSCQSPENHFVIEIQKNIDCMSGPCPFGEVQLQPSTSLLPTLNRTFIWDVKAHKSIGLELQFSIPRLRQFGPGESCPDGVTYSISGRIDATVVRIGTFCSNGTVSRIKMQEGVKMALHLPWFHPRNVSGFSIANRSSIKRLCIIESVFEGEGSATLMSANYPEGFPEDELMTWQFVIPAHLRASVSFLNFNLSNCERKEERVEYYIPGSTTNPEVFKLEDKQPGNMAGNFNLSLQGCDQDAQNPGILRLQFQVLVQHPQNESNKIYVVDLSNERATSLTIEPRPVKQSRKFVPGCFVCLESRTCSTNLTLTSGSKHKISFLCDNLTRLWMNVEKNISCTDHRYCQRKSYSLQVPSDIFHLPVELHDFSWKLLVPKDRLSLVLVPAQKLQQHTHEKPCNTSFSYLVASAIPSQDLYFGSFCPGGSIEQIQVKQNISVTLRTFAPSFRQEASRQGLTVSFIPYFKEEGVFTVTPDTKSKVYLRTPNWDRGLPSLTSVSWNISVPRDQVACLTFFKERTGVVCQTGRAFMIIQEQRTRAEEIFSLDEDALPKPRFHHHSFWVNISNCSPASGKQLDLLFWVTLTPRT

B1: antibody 76 (antibody, human IgG1, lambda, V domains shown)
VH: QVQLVQSGAEVKKPGSSVKVSCKASGGTFSSYAISWVRQAPGQGLEWMGGIIPIFGTANYAQKFQGRVTITADKSTSTAYMELSSLRSEDTAVYYCARDPTYFDWTRRGYYYMDVWGKGTTVTVSS
VL: SYELTQPPSVSVSPGQTARITCSGDALPKKYAFWYQQKSGQAPVLVIYEDSKRPSGIPEKFSGSSSGTMATLTISGAQVEDEADYYCYSTDSSDNPRGVFGGGTKLTVLG
notes: Human IgG1, lambda
Does B1 bind [1]?
Result: binds

B2: antibody 24 (antibody, human IgG1, kappa, V domains shown)
VH: QVQLVESGGGVVQPGRSLRLSCAASGFTFSSYGMHWVRQAPGKGLEWVAVISYDGSNKYYADSVKGRFTISRDNSKNTLYLQMNSLRAEDTAVYYCARGVGLPDIWGQGTMVTVSS
VL: EIVMTQSPDTLSLSPGERATLSCRASQKIYYSYLAWYQQKPGQAPRLLISGASTRASDISDRFSGGGSGTDFTLTINSLESEDAAVYYCQQYDSLPVTFGRGTKLEIKR
notes: Human IgG1, kappa
Does B2 bind [2]?
Result: binds

B3: CP13E10-54HC-89LC (antibody, human IgG1, kappa, V domains shown)
VH: EVQLVQSGAEVKKPGASVKVSCKASGYTFTSYYMHWVRQAPGQGLEWMGIINPSGGSTSYAQKFQGRVTMTRDTSTSTVYMELSSLRSEDTAVYYCARDGELRHFDHLLDYHYYMDVWGQGTTVTVSS
VL: EIVLTQSPATLSLSPGERATLSCRASQSVGSYLAWYQQRPGQAPRLLIYDASNRATGIPARFSGSGSGTDFTLTISSLEPEDFAVYYCQQRAQEFTFGQGTKVEIKR
notes: Human IgG1, kappa; Alexa Fluor 647 conjugated in the internalization assay; also called CP13E10-54VH-89VL
Which EC50 [3] does the source give for B3 here?
Its EC50 is 1.69 nM.

What about the Kd [4] of the same binder?
Its Kd is 52.9 nM.

And the Kd [5]?
The Kd was 79.9 nM.

What about the EC50 [6] of the same binder?
Its EC50 is 0.77 nM.

What about the EC50 [7] of the same binder?
Its EC50 is 0.73 nM.

And the Kd [8]?
Its Kd is 42 nM.

And the Kd [9]?
The Kd was 63.4 nM.

B4: CP13E10-54 variant (antibody, human IgG1, kappa, V domains shown)
VH: EVQLVQSGAEVKKPGASVKVSCKASGYTFTSYYMHWVRQAPGQGLEWMGIINPSGGSTSYAQKFQGRVTMTRDTSTSTVYMELSSLRSEDTAVYYCARDGELRHFDHLLDYHYYMDVWGQGTTVTVSS
VL: EIVLTQSPATLSLSPGERATLSCRASQSVGSYLAWYQQRPGQAPRLLIYDASNRATGIPARFSGSGSGTDFTLTISSLEPEDFAVYYCQQRANVFTFGQGTKVEIKR
How did the “IC50 (read off the curve)” value [10] turn out when B4 was run?
The value was about 9 nM.

B5: CP13E10-34 variant (antibody, V domains shown)
VH: EVQLVQSGAEVKKPGASVKVSCKASGYTFTSYYMHWVRQAPGQGLEWMGIINPSGGSTSYAQKFQGRVTMTRDTSTSTVYMELSSLRSEDTAVYYCARDGVLRHFDHLLDYHYYMDVWGKGTTVTVSS
VL: EIVLTQSPATLSLSPGERATLSCRASQSVGSYLAWYQQRPGQAPRLLIYDASNRATGIPARFSGSGSGTDFTLTISSLEPEDFAVYYCQQRANVFTFGQGTKVEIKR
B5 was tested. Which Kd [4] did it give?
The Kd was 607 nM.

What about the “fold lower binding relative to parental CP13E10” value [11] of the same binder?
Its value is over 7 fold.

B6: CP13E10-54HCv13-89LCv1 (antibody, human IgG1, kappa, V domains shown)
VH: EVQLVQSGAEVKKPGASVKVSCKASGYTFTSYYMHWVRQAPGQGLEWMGIINPSGGSTSYAQKFQGRVTMTRDTSTSTVYMELSSLRSEDTAVYYCARDAELRHFDHLLDYHYYMDVWGQGTTVTVSS
VL: EIVMTQSPATLSLSPGERATLSCRASQSVGSYLAWYQQKPGQAPRLLIYDASNRATGIPARFSGSGSGTDFTLTISSLQPEDFAVYYCQQRAQEFTFGQGTKVEIKR
For B6, which “IC50 (read off the curve)” value [12] is on record?
The value was about 5 nM.

B7: CP13E10 (antibody, human IgG1, kappa, V domains shown)
VH: EVQLVQSGAEVKKPGASVKVSCKASGYTFTSYYMHWVRQAPGQGLEWMGIINPSGGSTSYAQKFQGRVTMTRDTSTSTVYMELSSLRSEDTAVYYCARDGVLRYFDWLLDYYYYMDVWGKGTTVTVSS
VL: EIVLTQSPATLSLSPGERATLSCRASQSVGSYLAWYQQRPGQAPRLLIYDASNRATGIPARFSGSGSGTDFTLTISSLEPEDFAVYYCQQRANVFTFGQGTKVEIKR
notes: Human IgG1, kappa; Heavy chain can be prepared with or without the C-terminal lysine; also called CP13E10-WT; parental CP13E10 antibody
What does the source list for B7?
Kd [4]: 219 nM; Kd [5]: 232 nM; IC50 (read off the curve) [10]: ~7 nM

B8: CP13E10-291 (antibody, human IgG1, kappa, V domains shown)
VH: EVQLVQSGAEVKKPGASVKVSCKASGYTFTSYYMHWVRQAPGQGLEWMGIINPSGGSTSYAQKFQGRVTMTRDTSTSTVYMELSSLRSEDTAVYYCARDGELRHFDQVYNYHYYMDVWGQGTTVTVSS
VL: EIVLTQSPATLSLSPGERATLSCRASQSVGSYLAWYQQRPGQAPRLLIYDASNRATGIPARFSGSGSGTDFTLTISSLEPEDFAVYYCQQRANVFTFGQGTKVEIKR
notes: Human IgG1, kappa
Which Kd [4] does the source give for B8 here?
The Kd was 2.9 nM.

And the Kd [5]?
Its Kd is 3.12 nM.

And the “fold increase in affinity relative to CP13E10-34” value [13]?
The value was over 200 fold.

What about the “fold increase in binding relative to CP13E10-WT” value [14] of the same binder?
Its value is over 70 fold.
